# US10005846 (LIFEARC, dated 2018)
# T1: human transglutaminase type 2 (TG2) (human, UniProt P21980 1-687)
# T1 construct: Recombinant full-length human TG2 (Zedira; cat; T002 in the Biacore work); Also used here for the endogenous TG2 of HepG2 lysate and HK-2 cells; also called hTG2; rhTG2
# T1 sequence: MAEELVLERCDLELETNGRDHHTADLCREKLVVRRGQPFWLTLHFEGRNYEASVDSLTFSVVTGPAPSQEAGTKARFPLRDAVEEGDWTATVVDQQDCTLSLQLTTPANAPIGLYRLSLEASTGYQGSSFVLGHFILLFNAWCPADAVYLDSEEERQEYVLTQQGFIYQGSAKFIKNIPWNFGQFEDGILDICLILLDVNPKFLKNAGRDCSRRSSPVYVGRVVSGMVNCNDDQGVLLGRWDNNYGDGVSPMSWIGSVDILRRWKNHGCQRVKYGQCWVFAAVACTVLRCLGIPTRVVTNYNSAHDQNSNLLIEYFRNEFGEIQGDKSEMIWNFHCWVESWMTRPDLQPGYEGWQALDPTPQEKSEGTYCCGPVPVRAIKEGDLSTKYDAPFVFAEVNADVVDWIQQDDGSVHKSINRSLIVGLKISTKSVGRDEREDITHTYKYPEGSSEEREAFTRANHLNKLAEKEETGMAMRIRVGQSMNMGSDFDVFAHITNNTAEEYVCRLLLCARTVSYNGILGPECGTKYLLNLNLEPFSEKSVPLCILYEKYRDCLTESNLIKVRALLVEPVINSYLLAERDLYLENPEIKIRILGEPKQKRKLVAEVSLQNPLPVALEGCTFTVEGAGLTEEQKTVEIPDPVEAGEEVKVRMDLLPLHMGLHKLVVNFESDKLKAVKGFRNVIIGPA
# T2: cynomolgus monkey TG2 (cynomolgus monkey, UniProt A0A2K5VXI8 1-687)
# T2 construct: Bought recombinant protein; also called cynomogulus monkey TG2; cyano TG2
# T2 sequence: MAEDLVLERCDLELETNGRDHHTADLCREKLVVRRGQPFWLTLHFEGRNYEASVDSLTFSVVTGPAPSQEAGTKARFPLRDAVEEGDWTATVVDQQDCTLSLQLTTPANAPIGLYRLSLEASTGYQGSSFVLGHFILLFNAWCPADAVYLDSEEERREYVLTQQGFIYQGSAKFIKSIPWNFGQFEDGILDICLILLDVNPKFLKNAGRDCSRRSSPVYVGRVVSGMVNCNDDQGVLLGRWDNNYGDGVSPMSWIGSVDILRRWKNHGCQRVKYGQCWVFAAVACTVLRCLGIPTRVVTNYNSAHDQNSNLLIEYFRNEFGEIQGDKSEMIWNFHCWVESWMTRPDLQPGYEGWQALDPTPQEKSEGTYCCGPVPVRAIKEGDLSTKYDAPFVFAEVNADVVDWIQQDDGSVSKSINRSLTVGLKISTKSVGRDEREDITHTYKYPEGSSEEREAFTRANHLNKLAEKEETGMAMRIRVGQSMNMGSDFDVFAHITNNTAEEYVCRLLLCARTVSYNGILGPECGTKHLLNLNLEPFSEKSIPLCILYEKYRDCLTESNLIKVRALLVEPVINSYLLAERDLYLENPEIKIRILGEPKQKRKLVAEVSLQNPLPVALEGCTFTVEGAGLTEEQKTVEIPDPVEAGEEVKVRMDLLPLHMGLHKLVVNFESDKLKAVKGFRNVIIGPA
# How the values were obtained:
# [1] = target: T1, human transglutaminase type 2 (TG2); test: SPR (Biacore T200), antibody captured on anti-human IgG1 Fc chip, TG2 injected; +Ca2+
# Experimental: (§1) Recombinant cynomolgus monkey TG2 was obtained from Trenzyme. Surface plasmon resonance (SPR) was measured on a Biacore T200 instrument (GE Healthcare). CM5 chips (GE Healthcare cat. no.: BR-1006-68) were coated with monoclonal mouse anti-human IgG1 (Fc) (MAH) antibody (GE Healthcare cat. no.: BR-1008-39) by amine-coupling as described in the manufacturers instructions. HBS-EP+ buffer (0.01 M HEPES, 0.15 M NaCl, 3 mM EDTA, 0.05% v/v Surfactant P20) and HBS-P+ buffer (0.01 M HEPES, 0.15 M NaCl, 0.05% Surfactant P20) were purchased from GE Healthcare as 10× stocks (cat. nos.: BR-1006-69 and BR-1006-71). Calcium Chloride solution was obtained from Sigma Aldrich (cat. no.:21115).
# (§2) The method employed to determine the affinity of the anti-TG2 antibodies involved the capture of the chimeric or humanised antibodies on a MAH coated CM5 chip, followed by the injection of a series of TG2 samples in running buffer. The running buffer was 1×HBS-P+ containing 1 mM CaCl_2, or 1×HBS-EP+ for calcium-free experiments. Antibody capture was carried out for a contact time of 120 seconds at a flow rate of 10 μl/min resulting in the capture of approximately 40-80 RU. TG2 was injected over the immobilised antibody at concentrations ranging from 25 nM to 400 nM with a contact time up to 600 seconds at a flow rate of 30 μl/min. Dissociation of TG2 was typically measured for up to 5400 seconds (1.5 hours). Regeneration of the chip was then performed using 3 M MgCl_2, for a contact time of 60 seconds at a flow rate of […], followed by a 300 s stabilisation period before the next sample. For each of human and cynomolgus monkey TG2, at least 5 injections at a variety of concentrations were performed in at least two separate experiments.
# (§3) Kinetic data were exported from the Biacore T200 Evaluation Software and analysed using GraphPad Prism, where the association phases and dissociation phases were analysed separately using a one phase association model and one-phase exponential decay model respectively. Association rates ($kon$) were calculated for each curve individually, and dissociation rates ($koff$) values from the long dissociation phase data collected. Where $koff$ values were calculated to be $<1\times10^-5$ s^-1, values were set at 1×10^-5 for analysis, as rates slower than this could not be estimated accurately.
# [2] = target: T2, cynomolgus monkey TG2; test: as above
# Experimental: as §1, §2, §3
# [3] = target: T1, human transglutaminase type 2 (TG2); test: SPR (Biacore T200), antibody captured on anti-human IgG1 Fc chip, TG2 injected; -Ca2+
# Experimental: as §1, §2, §3
# [4] = target: T2, cynomolgus monkey TG2; test: as above
# Experimental: as §1, §2, §3
# [5] = target: T1, human transglutaminase type 2 (TG2); test: cell-based or functional assay
Binder,Kd [1],koff [1],kon [1],Kd [2],koff [2],kon [2],Kd [3],koff [3],kon [3],Kd [4],koff [4],kon [4],"half-maximal concentration of enzymatic inhibition, headed EC50 nM on the sheet, IC50 in the legend [panel A] [5]","half-maximal concentration of enzymatic inhibition, headed EC50 nM on the sheet, IC50 in the legend [panel B] [5]"
"cDH001 chimeric antibody (murine DH2 variable regions) (antibody, human IgG1, V domains shown) VH: not shown VL: QIVLTQSPAIMSASPGEKVTMTCSASSSVSYMYWYQQKPGSSPRLLIYDTSNLASGVPVRFSGSGSGTSYSLTISRMEAEDAATFYCQQWSSSPLTFGAGTKLELK",0.64 nM,1.8e-05 s⁻¹,28000 M⁻¹ s⁻¹,< 0.7 nM,< 1e-05 s⁻¹,15000 M⁻¹ s⁻¹,23 nM,0.00049 s⁻¹,21000 M⁻¹ s⁻¹,2.4 nM,6.3e-05 s⁻¹,26000 M⁻¹ s⁻¹,–,–
"cDD9001 chimeric antibody (murine DD9 variable regions) (antibody, human IgG1, V domains shown) VH: not shown VL: QIVLTQSPAIMSASPGEKVTMTCSASSSVDYMYWYQQKPGSSPRLLIYDTSNLASGVPVRFSGSGSGTSYSLTISRMGAEDAATYYCQQWNSSPLTFGAGTKLELK",0.43 nM,1.3e-05 s⁻¹,30000 M⁻¹ s⁻¹,0.52 nM,1.6e-05 s⁻¹,31000 M⁻¹ s⁻¹,3.1 nM,7.1e-05 s⁻¹,23000 M⁻¹ s⁻¹,0.89 nM,4.1e-05 s⁻¹,46000 M⁻¹ s⁻¹,–,–
"AB1 murine monoclonal antibody (antibody, V domains shown, Mouse hybridoma IgG; heavy chain amplified with constant region primer MHCG1, kappa light chain; also called mAB003) VH: EVQLVESGGGLVKPGGSLKLSCAASGFTLSSSAMSWVRQTPDRRLEWVATISVGGGKTYYPDSVKGRFTISRDNAKNTLYLQMNSLRSEDTAMYYCAKLISLYWGQGTTLTVSS VL: DIKMTQSPSSMYASLGERVTITCKASQDINSYLTWFQQKPGKSPKTLIYRTNRLFDGVPSRFSGSGSGQDFFLTISSLEYEDMGIYYCLQYDDFPYTFGGGTKLEIK",–,–,–,–,–,–,–,–,–,–,–,–,9.5 nM,–
"cBB001 chimeric antibody (murine BB7 variable regions) (antibody, human IgG1, V domains shown, also called chimeric BB7) VH: AVQLVESGGGLVKPGGSLKLSCAASGIIFSSSAMSWVRQTPEKRLEWVATISSGGRSTYYPDSVKGRFTVSRDSAKNTLYLQMDSLRSEDTAIYYCAKLISPYWGQGTTLTVSS VL: AIKMTQSPSSMYASLGERVIITCKASQDINSYLTWFQQKPGKSPKTLIYLTNRLMDGVPSRFSGSGSGQEFLLTISGLEHEDMGIYYCLQYVDFPYTFGGGTKLEIK",< 0.05 nM,< 1e-05 s⁻¹,210000 M⁻¹ s⁻¹,< 0.03 nM,< 1e-05 s⁻¹,290000 M⁻¹ s⁻¹,< 0.07 nM,< 1e-05 s⁻¹,150000 M⁻¹ s⁻¹,< 0.05 nM,< 1e-05 s⁻¹,190000 M⁻¹ s⁻¹,–,–
"BB7 murine monoclonal antibody (antibody, V domains shown, Mouse hybridoma IgG; heavy chain amplified with primer MHCG1, kappa light chain; also called mBB001) VH: AVQLVESGGGLVKPGGSLKLSCAASGIIFSSSAMSWVRQTPEKRLEWVATISSGGRSTYYPDSVKGRFTVSRDSAKNTLYLQMDSLRSEDTAIYYCAKLISPYWGQGTTLTVSS VL: AIKMTQSPSSMYASLGERVIITCKASQDINSYLTWFQQKPGKSPKTLIYLTNRLMDGVPSRFSGSGSGQEFLLTISGLEHEDMGIYYCLQYVDFPYTFGGGTKLEIK",–,–,–,–,–,–,–,–,–,–,–,–,–,0.752 nM
